Reference: patent publication US20190106498A1, “TREATMENT FOR ACUTE MYELOID LEUKEMIA” (priority 2017, published 2019)

Columns and labels:
[1] = tested on: Numb; assay: Numb expression in purified AML blasts of patients; type: in vivo, human; details: monotherapy at C1D1; combination at C4D1
Method: FIGS. 8A-8B Purified AML blasts (FACS gate: CD45^dim SSC^low AV^−CD4^−CD8^−CD19^−) were fixed, permeabilized and cells incubated overnight with α-Numb antibody, followed by staining with a fluorescently labeled secondary antibody. DAPI was used to counterstain for DNA. Samples were acquired on an ImageStreamX® Mark II imaging flow cytometer (Amnis/EMD Millipore) and analyzed using INSPIRE™ and IDEAS® software (Amnis/EMD Millipore). FIG. 8A) Total Numb expression (Mean fluorescence intensity) was determined across the slide for bone marrow samples of one patient harvested at baseline (“screening”), after ARGX-110 monotherapy (C1D1) and after combination treatment (C4D1). FIG. 8B) Symmetrically (SD) and asymmetrically dividing (AD) cells were scored for a bone marrow patient sample at baseline (“before”) and after ARGX-110 monotherapy (after αCD70).
The level of asymmetric division in a population of LSCs can be determined by measuring the level of a cell fate determinant such as the Numb protein (Riether et al., J Exp Med. 2017 February; 214(2): 359-380, incorporated herein by reference). Increased Numb expression is indicative of an increase in asymmetric division and therefore an increase in myeloid differentiation and decreased LSC populations.

[2] = tested on: soluble CD27; assay: Serum soluble CD27 ELISA in patients; type: in vivo, human; details: representative patient
Method: FIG. 10 The serum samples were analysed using an ELISA (Duoset ELISA, human CD27/TNFRSF7 (cat: DY382-05, R&D Systems). Concentration of soluble CD27 in the sample is calculated from a calibration curve. The method allows measurement of the serum concentration of natural human soluble CD27 by means of a sandwich ELISA method. Goat Anti-Human CD27 Capture antibody is coated on a microplate and nonspecific binding sites are blocked. Human serum samples are applied and bound human soluble CD27 is detected and visualized by the subsequent additions of Biotinylated Goat Anti-Human CD27 Detection antibody, Streptavidin-HRP and the mixture of the colour reagent H2O2 and the chromogenic substrate tetramethylbenzidine (TMB).
To assess the effect of anti-CD70 monotherapy and combination therapy on the CD27/CD70 interaction as well as to further explore the effect on blast percentage and stemness, patients' soluble CD27 levels were also measured.

[3] = in vivo
[4] = Phase I/II trial: adverse events and toxicity

B1: ARGX-110: IgG1 anti-CD70 antibody with defucosylated Fc region; VH SEQ ID NO: 4, VL SEQ ID NO: 8 (antibody, V domains shown)
VH: EVQLVESGGGLVQPGGSLRLSCAASGFTFSVYYMNWVRQAPGKGLEWVSDINNEGGTTYYADSVKGRFTISRDNSKNSLYLQMNSLRAEDTAVYYCARDAGYSNHVPIFDSWGQGTLVTVSS
VL: QAVVTQEPSLTVSPGGTVTLTCGLKSGSVTSDNFPTWYQQTPGQAPRLLIYNTNTRHSGVPDRFSGSILGNKAALTITGAQADDEAEYFCALFISNPSVEFGGGTQLTVLG
modifications: IgG1, defucosylated Fc; Custom antibody fragment
- Numb expression [1]: increased
- sCD27 levels after the end of treatment (EOT) [2]: rise after the end of treatment
- sCD27 levels ([2]; monotherapy C1D1 vs Loading, then combination therapy): reduces sCD27 levels compared to before treatment
- Lung infection, Grade 3-5 adverse events: Total [3]: 1
- Tooth Infection, Grade 3-5 adverse events: Total [3]: 1
- Lung infection, Grade 3-5 adverse events: (patients) ([3]; 1 mg/kg): 1 (1)
- Lung infection, Grade 3-5 adverse events: Events ([3]; 1 mg/kg): 1 (1)
- Tooth Infection, Grade 3-5 adverse events: (patients) ([3]; 3 mg/kg): 1 (1)
- Tooth Infection, Grade 3-5 adverse events: Events ([3]; 3 mg/kg): 1 (1)
- Anaemia, Grade 3-5 adverse events: (patients) ([4]; Cohort 1 (1 mg/kg), with AZA): 1
- Anaemia, Grade 3-5 adverse events: Events ([4]; Cohort 1 (1 mg/kg), with AZA): 4
- Febrile Neutropenia, Grade 3-5 adverse events: (patients) ([4]; Cohort 1 (1 mg/kg), with AZA): 2 (2)
- Febrile Neutropenia, Grade 3-5 adverse events: Events ([4]; Cohort 1 (1 mg/kg), with AZA): 2 (2)
- Leukopenia, Grade 3-5 adverse events: (patients) ([4]; Cohort 1 (1 mg/kg), with AZA): 1 (1)
- Leukopenia, Grade 3-5 adverse events: Events ([4]; Cohort 1 (1 mg/kg), with AZA): 1 (1)
- Neutropenia, Grade 3-5 adverse events: (patients) ([4]; Cohort 1 (1 mg/kg), with AZA): 1
- Neutropenia, Grade 3-5 adverse events: Events ([4]; Cohort 1 (1 mg/kg), with AZA): 2
- Pleuropericarditis, Grade 3-5 adverse events: (patients) ([4]; Cohort 1 (1 mg/kg), with AZA): 1 (1)
- Pleuropericarditis, Grade 3-5 adverse events: Events ([4]; Cohort 1 (1 mg/kg), with AZA): 1 (1)
- Thrombocytopenia, Grade 3-5 adverse events: (patients) ([4]; Cohort 1 (1 mg/kg), with AZA): 2
- Thrombocytopenia, Grade 3-5 adverse events: Events ([4]; Cohort 1 (1 mg/kg), with AZA): 8
- Anaemia, Grade 3-5 adverse events: (patients) ([4]; Cohort 2 (3 mg/kg), with AZA): 3
- Anaemia, Grade 3-5 adverse events: Events ([4]; Cohort 2 (3 mg/kg), with AZA): 10
- Constipation, Grade 3-5 adverse events: (patients) ([4]; Cohort 2 (3 mg/kg), with AZA): 1 (1)
- Constipation, Grade 3-5 adverse events: Events ([4]; Cohort 2 (3 mg/kg), with AZA): 1 (1)
- Fever, Grade 3-5 adverse events: (patients) ([4]; Cohort 2 (3 mg/kg), with AZA): 1 (1)
- Fever, Grade 3-5 adverse events: Events ([4]; Cohort 2 (3 mg/kg), with AZA): 1 (1)
- Hypertension, Grade 3-5 adverse events: (patients) ([4]; Cohort 2 (3 mg/kg), with AZA): 1
- Hypertension, Grade 3-5 adverse events: Events ([4]; Cohort 2 (3 mg/kg), with AZA): 2
- Hypokalaemia, Grade 3-5 adverse events: (patients) ([4]; Cohort 2 (3 mg/kg), with AZA): 1 (1)
- Hypokalaemia, Grade 3-5 adverse events: Events ([4]; Cohort 2 (3 mg/kg), with AZA): 1 (1)
- Leukopenia, Grade 3-5 adverse events: (patients) ([4]; Cohort 2 (3 mg/kg), with AZA): 1 (1)
- Leukopenia, Grade 3-5 adverse events: Events ([4]; Cohort 2 (3 mg/kg), with AZA): 1 (1)
- Neutropenia, Grade 3-5 adverse events: (patients) ([4]; Cohort 2 (3 mg/kg), with AZA): 1
- Neutropenia, Grade 3-5 adverse events: Events ([4]; Cohort 2 (3 mg/kg), with AZA): 4
- Proctitis, Grade 3-5 adverse events: (patients) ([4]; Cohort 2 (3 mg/kg), with AZA): 1
- Proctitis, Grade 3-5 adverse events: Events ([4]; Cohort 2 (3 mg/kg), with AZA): 2
- Thrombocytopenia, Grade 3-5 adverse events: (patients) ([4]; Cohort 2 (3 mg/kg), with AZA): 3 (3)
- Thrombocytopenia, Grade 3-5 adverse events: Events ([4]; Cohort 2 (3 mg/kg), with AZA): 3 (3)
- Disease Progression, Grade 3-5 adverse events: (patients) ([4]; Cohort 3 (10 mg/kg), with AZA): 1 (1)
- Disease Progression, Grade 3-5 adverse events: Events ([4]; Cohort 3 (10 mg/kg), with AZA): 1 (1)
- Febrile Neutropenia, Grade 3-5 adverse events: (patients) ([4]; Cohort 3 (10 mg/kg), with AZA): 1 (1)
- Febrile Neutropenia, Grade 3-5 adverse events: Events ([4]; Cohort 3 (10 mg/kg), with AZA): 1 (1)
- Thrombocytopenia, Grade 3-5 adverse events: (patients) ([4]; Cohort 3 (10 mg/kg), with AZA): 1
- Thrombocytopenia, Grade 3-5 adverse events: Events ([4]; Cohort 3 (10 mg/kg), with AZA): 2
- Anaemia, Grade 3-5 adverse events: (patients) ([4]; Cohort 4 (20 mg/kg), with AZA): 1
- Anaemia, Grade 3-5 adverse events: Events ([4]; Cohort 4 (20 mg/kg), with AZA): 2
- Febrile Neutropenia, Grade 3-5 adverse events: (patients) ([4]; Cohort 4 (20 mg/kg), with AZA): 1 (1)
- Febrile Neutropenia, Grade 3-5 adverse events: Events ([4]; Cohort 4 (20 mg/kg), with AZA): 1 (1)
- Thrombocytopenia, Grade 3-5 adverse events: (patients) ([4]; Cohort 4 (20 mg/kg), with AZA): 2 (2)
- Thrombocytopenia, Grade 3-5 adverse events: Events ([4]; Cohort 4 (20 mg/kg), with AZA): 2 (2)
- Anaemia, Grade 3-5 adverse events: Total ([4]; all cohorts): 16
- Constipation, Grade 3-5 adverse events: Total ([4]; all cohorts): 1
- Disease Progression, Grade 3-5 adverse events: Total ([4]; all cohorts): 1
- Febrile Neutropenia, Grade 3-5 adverse events: Total ([4]; all cohorts): 4
- Fever, Grade 3-5 adverse events: Total ([4]; all cohorts): 1
- Hypertension, Grade 3-5 adverse events: Total ([4]; all cohorts): 2
- Hypokalaemia, Grade 3-5 adverse events: Total ([4]; all cohorts): 1
- Leukopenia, Grade 3-5 adverse events: Total ([4]; all cohorts): 1
- Neutropenia, Grade 3-5 adverse events: Total ([4]; all cohorts): 6
- Pleuropericarditis, Grade 3-5 adverse events: Total ([4]; all cohorts): 1
- Proctitis, Grade 3-5 adverse events: Total ([4]; all cohorts): 2
- Thrombocytopenia, Grade 3-5 adverse events: Total ([4]; all cohorts): 15
- toxicity ([4]; monotherapy or in combination with aza): did not result in any observed increase in toxicity
